Measured values as given in the RNAGym collection of RNA variant scans (doi:10.1073/pnas.2313332121).

B1: TPR t1 (parent)
chain: GACCAAUCUGCCCUCAGAGCUCGAGAACAUCUUCGGAUGCAGAGGAGGCAGGCUUCGGUGGCGCGAUAGCGCCAACGUCCUCAACCUCCAAUGCAUCCCACCACAUGAUGAUGCCUGAAGAGCCUUGGUUUUUUG

Variants of: B1
Experiment: polymerase ribozyme fitness, log enrichment relative to wild type (log ratio); higher = more active; in vitro selection for triplet polymerase activity
Summary of the method: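 Mutant libraries were PCR-built and transcribed for each subunit of a heterodimeric triplet polymerase ribozyme and selected for one round in triplicate at −7 °C, frozen, before gel excision of extended constructs and streptavidin-bead capture. Input and output libraries were Illumina-sequenced, keeping genotypes with ≥10 input reads and ≥1 read per output. Fitness is a logarithmic ratio of genotype to wild-type enrichment, in base 2, using inverse-variance-weighted replicate averages.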

Row | Variant | polymerase ribozyme fitness (log ratio)
1 | G10U C49U C72G C82A C114A | -2.83
2 | G10C A37U G63U U96A C124U U129G | -4.44
3 | C11A A46U | -2.08
4 | U9G C20A | -2.5
5 | G10C C89G A121C | 0.737
6 | G10A C11A A18C G42C G44A G60A C101A | -4.31
7 | G10U G47U G110U G117U G122A | -4.52
8 | U9G C102U G135U | -2.17
9 | C11A A27C | -5.15
10 | G10A C15U | -2.8
11 | U9G G52U C70G G122A | -4.3
12 | G10A G120U G135C | 1.62
13 | U9G G57U | -0.376
14 | G10U C13G C73U G122U | -0.626
15 | G10A C15A C73U | -2.06
16 | U9G C72G G113A G120A | -1.17
17 | C11A C115U G122U | -0.883
18 | G10A C20G A41C G48A G69U A84G | -3.37
19 | C11A C12A C22A C40U A46U U78C C114A | -6.96
20 | G10U G17C G45U G93U C123G | -4.78
21 | G10C C73A C101U U130C | -0.689
22 | G10C U59G C88A C104A | -3.65
23 | G10U C82G G110A | -1.83
24 | G10C C20A | -3.95

Row | Variant | polymerase ribozyme fitness (log ratio)
25 | G10A A50G | 0.0587
26 | G10A A18C G122A C123G | -0.417
27 | C11A A18U C49A C123G | -2.08
28 | C11A A84C C85U U87A C89G C124A | -4.77
29 | U9G G71U C88A C115A | -2.67
30 | C11A A84U U92C C98U | -4.14
31 | C11A C56U G69A C76A C79A C124A | -7.17
32 | U9G C13G C53G C56U C86U A111U | -2.52
33 | C11A A111C U131A | -2.03
34 | C11A C12U C40A C56U C89A G122U | -2.66
35 | C11A C40G | -3.12
36 | U9G C72U C86A | -0.508
37 | U9G C12A U14G G63U C99A G120C | -6.39
38 | G10A U55C C70U | -0.798
39 | C11A G36C | -2.32
40 | U9G C11U C53U U81A | -0.54
41 | G10C A46C C101A C123G U130A | -1.67
42 | C11A C15U C34G C62G A95U G110U G120A | -7.3
43 | G10A C70G U87A C123A | -4.27
44 | G10C C11U C62G A84U A108G | -4.22
45 | G10A G63A C86U | -1.07
46 | G10A U21G G52A G69C U78G C115G U133G | -7.23
47 | G10U C53U A91U U92A C97U | -6.09
48 | G10U A90G | -0.702

Row | Variant | polymerase ribozyme fitness (log ratio)
49 | G10A G47C G51C U59G U81C C115A | -5.77
50 | G10U A95U G128A | -3.44
51 | G10A G63A | -0.758
52 | G10C C70G | -3.67
53 | C11A C34G G45A C53U C70G C101A U106A G117C | -7.32
54 | G10U C11G G47C G58A C62G | -3.87
55 | G10U C56U U116A | -3.65
56 | U9G C15A C97U A108G G120A | -1.87
57 | U9G C72G U87G | -0.102
58 | G10A U109A U133G | -7.59
59 | U9G C11U G35U G69U C89U | -3.13
60 | U9G C53U A95C C115A | 0.969
61 | G10A C12U G71U U112A | 1.43
62 | G10A U81A | -0.546
63 | G10U U14A | -1.65
64 | U9G C20A C22U C86U | -4.49
65 | G10A A37G G47U U59A G117U G122U U125G | -5.7
66 | G10U G61A | 0.0248
67 | C11A C70G | -3.13
68 | C11A C70U | -2.4
69 | G10A G47U C56U C82A A83G | -2.51
70 | G10A A16C A50G C101A | -2.99
71 | C11A G45U A84G C101U G122A | -2.1
72 | G10U G42U G69U C115A | -1.2

Row | Variant | polymerase ribozyme fitness (log ratio)
73 | G10A C22G G57C | -2.92
74 | C11A C56A | -1.49
75 | G10A C40U A46C U130G | -2.46
76 | G10A U14A C56G | -3.83
77 | C11A C13G C62G | -3.87
78 | G10A C70G | -2.45
79 | G10A C70A | -1.32
80 | U9G C12A G57U A111U C114A U133A | -5.59
81 | G10U C20A C49U G65C C94A U109G | -7.47
82 | G10A A29G C62U G113A U130A | -3.56
83 | C11A G39U C86U C104U G110A | -2.77
84 | C11A A18C A43C C53U | -4.45
85 | C11A A111C | -1.42
86 | G10A G36U G44U G61U C88U A95G U96A G120A | -7.26
87 | G10U C22G C56U C72U A90G C114U | -3.41
88 | G10U C79A | -0.723
89 | C11A C13G U32C A50U G93U U96G U112A U131G | -4.75
90 | G10A G52A G60A C79A C115A U132A | -1.53
91 | C11A G47A G77A | -2.62
92 | G10U A37U G120C U129C | 0.637
93 | U9G C82G | -0.102
94 | G10U G23U A26G G63A C114G | -5.43
95 | C11A A83G C85U G120C | 0.982
96 | U9G G44U G58A G60U C102U U106A U133C | -3.81

Row | Variant | polymerase ribozyme fitness (log ratio)
97 | G10A C53G G69U C88U G110U | -0.0648
98 | U9G U78C C89U | -0.533
99 | G10U G35C | -5.02
100 | G10C C15A G39C | -4.62
101 | C11A G42U C70U | -3.6
102 | G10A A27G C31G G107C | -2.98
103 | G10C C11A C31A G47U G107U G113A | -2.42
104 | U9G G48C G120A U130A G135U | -0.622
105 | G10C G120U | -1.23
106 | U9G C40G C94U C123A U125A | -0.873
107 | G10C G42C G44U C72U U87G | -5.88
108 | G10A G42U | -1.32
109 | G10A G45C C56G G63A | -4.08
110 | G10U U38G A41G | -1.27
111 | G10A A41C G52A | -1.27
112 | G10U U92G C94U U133A | -2.28
113 | G10U A43G G47A A74G | -3.06
114 | G10U U14A C73A A83U | -1.57
115 | G10U C53U | 0.0146
116 | U9G G57U U96A U112A | 0.146
117 | G10C C11U C104A | -0.93
118 | C11A C85U U133G | -2.41
119 | U9G C70U | -0.679
120 | C11A A29U G36A C124U | -4.08

Row | Variant | polymerase ribozyme fitness (log ratio)
121 | C11A C73U | -1.2
122 | U9G C12U C13G G47C C56U | -1.38
123 | C11A A46U G93A | -3.04
124 | U9G C15A G58A C97U U116G U129G | -5.21
125 | C11A A27G A41U C49G G61U G120A | -3.04
126 | G10C A27U G39U | -3.03
127 | G10U C53U G65A A91U C104G A121U | -7.6
128 | U9G U92G | -1.92
129 | G10U G93A C99U | -4.71
130 | U9G G48U G61U G135U | -1.68
131 | U9G C72G | -0.437
132 | G10A G44U | -1.5
133 | G10U G47U A74G G113U C123G U126A | -3.52
134 | U9G C20U G51U C94U | -4.89
135 | G10C G52U C53A | -1.16
136 | C11A C53G C64U C97U C101G G135C | -3.13
137 | G10U A37U G52A G77C G120U | 0.713
138 | G10A C12A C102A | -2.74
139 | C11A G42U G61U C114G U130A U132G | -4.29
140 | C11A A66U G71A A121C U130A | -1.61
141 | G10C C15U | -0.996
142 | U9G A105U G113A | -5.18
143 | G10C U14G C70U A91C | -4.25
144 | G10U G47C C64U | -1.28

Row | Variant | polymerase ribozyme fitness (log ratio)
145 | G10U A26U G45A | -2.84
146 | G10U C28U C53U C73U U96C C104A G110A | 0.843
147 | U9G G10U C94U | -0.059
148 | G10A C13U U14A G61U C104G | -6.29
149 | U9G C56U | -0.823
150 | G10A C40A A111C | -1.11
151 | U9G G10U C12G A111G | 0.61
152 | G10U G39C | -0.652
153 | G10C G63A | -1.49
154 | G10C G35A G69U U81G C82G C123A | -2.07
155 | G10U C13U G57C G58U C88U G107A C123U | -6.52
156 | G10A C102A | -1.65
157 | G10U C15G | -1.83
158 | G10U U30C A37G C56U C73U | -4.17
159 | C11A C22U | -5.15
160 | C11A G19C G57U | -5.03
161 | U9G G10U U14A C97U | -0.883
162 | G10U C56U | 0.114
163 | C11A C79U | -1.59
164 | G10U A46U C73U C88A U133A | -2.31
165 | G10A C98U C115A | -2.67
166 | G10A G71A A83C U106A A108U | -1.78
167 | G10U C11G G60C A95G | -0.947
